Data: the nanobody polyreactivity screen of Harvey et al. (2022)

experiment: yeast display, Sf9 membrane polyspecificity reagent, FACS + sequencing; frameworks hold sequencing errors
Summary of the method: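 A synthetic nanobody library was expressed on Saccharomyces cerevisiae BJ5465 by galactose induction for 36–48 hours. The library was stained for 1 hour at 4 °C with 10% biotinylated, detergent-solubilized Sf9 membrane reagent and enriched with streptavidin microbeads before FACS. Low and high (top ~1%) gates were set on anti-HA fluorescence for expression and streptavidin fluorescence for reagent binding, and each polyreactivity label reflects the gate of origin.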

Row | Sequence | polyreactivity (PSR sort gate)
1 | QVQLVESGGGLVQAGGSLRLSCAASGRTFYYNTMGWYRQAPGKERELVASITSGSSTYYADSVKGRFTISRDNAKNTVYLQMNSLKPEDTAVYYCAVYRRYSVKYHYGYWGQGTQVTVSS | high polyreactivity
2 | QVQLVESGGGLVQAGGSLRLSCAASGRTFYYNTMGWYRQAPWKEWELVAAISWRTGSTYYADSVKGRFSISRDNAKNTVYLQMKSLKPEDTAVYYCAAVLFGYPRTIGTWYDRYYYWGQGTQVTVSS | high polyreactivity
3 | QVQLVESGGGLVQAGGSLRLSCAASGRTFYYSMGWYRQAPGKERYADSVKGRFTISRDNAKNTVYLQMNSLKPEDTAVYYCSAKVPEPPSLDESDYWGQGTQVTVSS | low polyreactivity
4 | QVQLVESGGGLVQAGGSLRLSCAASGRTFYYYAMGWYRQAPGKERELVAAITSGGSTKYADSVKGRFTISRDNAKNTVYLQMNSLKPEDTAVYYCAKRYFSSSRYYYWGQGTQVTVSS | high polyreactivity
5 | QVQLVESGGGLVQAGGSLRLSCAASGRTFYYYAMGWYRQAPGKERELVASISRRGGSTYYADSVKGRFTISRDNAKNTVYLQMNSLKPEDTAVYYCAASHYHGYSRMDYWGQGTQVTVSS | high polyreactivity
6 | QVQLVESGGGLVQAGGSLRLSCAASGRTFYYYAMGWYRQAPGKERELVASISSSGRTYYADSVKGRFTISRDNAKNTVYLQMNSLKPEDTAVYYCAKVWSSSYYRYGYWGQGTQVTVSS | high polyreactivity
7 | QVQLVESGGGLVQAGGSLRLSCAASGRTFYYYAMGWYRQAPGKEREMVATISGGSSTNYADSVKWRFTISRDNAKNTVYLQMNSLKPEDTAVFYCAARWWRGGGYRPNYYKLKYDYWGQGTQVTVSS | high polyreactivity
8 | QVQLVESGGGLVQAGGSLRLSCAASGRTFYYYDMGWYRQAPGKERELVAAISASGGSTYYADSVKGRFTISRDNAKNTVYLPMNSLKPDDTAVYYCAATLYHYWYSDFDYWGQGTQVTVSS | high polyreactivity
9 | QVQLVESGGGLVQAGGSLRLSCAASGRTFYYYGMGWYRQAPGKERELVATISWSGGSTYYADSVKGRFTISRDNAKNTVYLQMNSLKPEDTAVYYSAADGQFLYDHIEVDYWGQATQVTVSS | low polyreactivity
10 | QVQLVESGGGLVQAGGSLRLSCAASGRTFYYYTMGWYRQAPGKERELVAAIRGSGRTYYADSVKGRFTISRDNAKNTVYLQMNSLKPEDTAVYYCAAETGYTIRYDYWGQGTQVTVSS | high polyreactivity
11 | QVQLVESGGGLVQAGGSLRLSCAASGRTFYYYYTMGWYRQAPGKERELVAAISRSGSTNYADSVKGRFTISRDNAKNSVYLQMNSLKPEDTAVYYCAKETNRVGRYQWGQGTQVTVSS | low polyreactivity
12 | QVQLVESGGGLVQAGGSLRLSCAASGRTFYYYYTMGWYRQAPGKERELVAAISRSGSTNYADSVKGRFTISRDNAKNTVYLQMNSLKPEDTAVYYCAKETNRVGRYHCGQGTQVTVSS | low polyreactivity
13 | QVQLVESGGGLVQAGGSLRLSCAASGRTIAAYAMGWYRQAPGKERELVAAISRSGGSTYYADSVKGRFTISRDNAKNTVYLQMNSLKPEDTAVYYCAAQRQYGKFDYWGQGTQVTVSS | high polyreactivity
14 | QVQLVESGGGLVQAGGSLRLSCAASGRTIASYAMGWYRQAPGKERELVAAITSGGSTYYADSVKGRFTISRDNAKNTVYLQMNSLKPEDTAVYYCARIHAIWRGYDYWGQGTQVTVSS | low polyreactivity
15 | QVQLVESGGGLVQAGGSLRLSCAASGRTIASYTMGWYRPAPGKERELVAAISKSGGSTYYADSVKGRFTISRDNAKNTVYLQMNSLKPEDTAVYYCAKRRSGNVRKYDYWGQGTQVTVSS | high polyreactivity
16 | QVQLVESGGGLVQAGGSLRLSCAASGRTIASYTMGWYRQAPGKERELVAAISKSGGSTYYADSVKGRFTISRDNAKNTVYLQMNSLKPEDTAVYYCAAGVPFWFWFEMDYWGQGTQVTVSS | high polyreactivity
17 | QVQLVESGGGLVQAGGSLRLSCAASGRTIFYYAMGWYRQAPGKERELVATITKRGGSTYYADSVKGRFTISRDNAKNTVYLQMNSLKPEDTALYYCAARFVGWRGGRAYYYWGQGTQVTVAS | high polyreactivity
18 | QVQLVESGGGLVQAGGSLRLSCAASGRTIGPYAMGWYRQAPRKERELVAAISWSVGSTYYADSVKGRFTISRDNAKNTVYLQMNSLKPVDTAVYFCGAVYYSHVYYWGQGTQVTVSS | high polyreactivity
19 | QVQLVESGGGLVQAGGSLRLSCAASGRTIGSNVMGWYRQAPGKERELVAAITYSGVSTYADSVKGRFTISRDNAKNTVYLQINSLKPEDTAVYYCNAYPTTYYQQYDYWGQGTQVTVSS | low polyreactivity
20 | QVQLVESGGGLVQAGGSLRLSCAASGRTIIVYAMGWYRQAPGKERELVASITGIGDRTYYADSVKGRFTISRDNAKNTVYLQMNSLKPEDTAVYYCAKYGRTRFYYWGQGTQVTVSS | high polyreactivity
21 | QVQLVESGGGLVQAGGSLRLSCAASGRTILHYAMGWYSQAPGKERELVASISSGVSTHYADSVKGRFTISRDNAKNTVYLQMNSLIPEDTAVYDCAARPYRIGRYGYDYDYWGQGTQVTVSS | high polyreactivity

Row | Sequence | polyreactivity (PSR sort gate)
22 | QVQLVESGGGLVQAGGSLRLSCAASGRTIQWYAMGWYRQAPGKERELVAGISFSGGSTYYADSVKGRFTISRDNAKNTVYLQMNSLKPEDTAVYYCNAQGYTTYRGDYWGQGTQVTVSS | high polyreactivity
23 | QVQLVESGGGLVQAGGSLRLSCAASGRTIRGNAMGWYRQAPGKERELVAAIRWNGGSTYYADSVKGRFTISRDNAKNTVYLQMNSLKPEDSAVSYCAVSYWYSRYDYWGQGTQVTVSS | high polyreactivity
24 | QVQLVESGGGLVQAGGSLRLSCAASGRTIRRYAMGWYRQAPGKERELVAAITISGGSTYYADSVKGRFTISRDNAKNTVYLQMNSLKPEDTAVYYCAAQPWRALGYYYWGQGTQVTVSS | high polyreactivity
25 | QVQLVESGGGLVQAGGSLRLSCAASGRTIRVNAMGWYRQAPRKERELVAAISRSTGDTYYADSVKGRFTNSRDNAKNTVYLQMHSLKPEDTAVYYCAADVPGGEGDYAYEYWGQGTQVNVSS | low polyreactivity
26 | QVQLVESGGGLVQAGGSLRLSCAASGRTIRWNAMGWYRQAPGKERELVAAITSRGGSTYYADSVKGRFTISRDNAKNTVYLQMISLKPEDTAVSYCAKQPKPPPVTGYDYSGQGTQVTVSS | high polyreactivity
27 | QVQLVESGGGLVQAGGSLRLSCAASGRTIRYNAMGWYRHAPGKERELVAAITGSGGSTYYADSVKGRFTISRDNAKNTVYLQMNSLKPEDTAAYSCNAVGIWFPIRLIVPYDYWGQGTQVTVSS | low polyreactivity
28 | QVQLVESGGGLVQAGGSLRLSCAASGRTIRYYSMGWYRQAPGKESELVAAINYSGGRTYYADSVKGRFTISRDNSMNTVYLQLNSLKPEDTAVYYCNAVLGPYFPKFDYWGQGTQVTVSS | high polyreactivity
29 | QVQLVESGGGLVQAGGSLRLSCAASGRTIRYYVMGWYRQAPGKERELVAAISSGGRTNYADSVKGRFTISRDNAKNTVYLQMNSLKPEDTAVYYCAADLWYYWTATRAFDYWGQGTQVTVSS | high polyreactivity
30 | QVQLVESGGGLVQAGGSLRLSCAASGRTISWYAMGRYRQAPGKERELVAAITYSGGSTYYAVSVKGRFTISRDNAKNTVYLQMNSLKPEDTAVYYCAADGRVREYDYWGQGTQVTVSS | high polyreactivity
31 | QVQLVESGGGLVQAGGSLRLSCAASGRTITWYAMGWYRQAPGTERELVAAITRTGRTTYADSVKGRFTISRDNAKNTVYLQMNSLKPEDTAVYYCAARRWGEYDYWGQGTQVTVSS | high polyreactivity
32 | QVQLVESGGGLVQAGGSLRLSCAASGRTIVFNAMGWYRQAPGKERELVAAITKNGGSTYYADSVKGRFTISRDNAKNTVYLQMNSLKPEDTAVYYCAVRRGYPFFYWGQGTQVTVSS | low polyreactivity
33 | QVQLVESGGGLVQAGGSLRLSCAASGRTIYFNVMGWYRQAPGKERELVAAISGGGSTNYADSVKGRYTISRDNAKNTVYLQMNSLKPEDTAVYYCATGYYSGLIDDYWGQGTQVTVSS | low polyreactivity
34 | QVQLVESGGGLVQAGGSLRLSCAASGRTIYFYTMGWYRQAPGKERELVATAITSGGCTNYAVSVKGRFTISRDNAKNTVHLLMNSRKPEDTAVYYCAAVPTEFGNRLEYDYWGQGTQVTVSS | low polyreactivity
35 | QVQLVESGGGLVQAGGSLRLSCAASGRTIYQYAMGWYRQAPGKERELVAAISRGGSTNYADSLKGRFTISRDNAKNTVFLQMHSLKPEDTAVYYCASWYKFLSLKRLYERDYWGQGTQVTVSS | high polyreactivity
36 | QVQLVESGGGLVQAGGSLRLSCAASGRTKQRKAMGWYRQAPGKERELVAAISSSGGSTYYADSVKGRFTISRDNAKNTVYLQMNSLKPEDTAVYYCAADGQFDDYYSLPFYYDYWGQGTHVTVSS | high polyreactivity
37 | QVQLVESGGGLVQAGGSLRLSCAASGRTLARNAMGWYRQAPGKERELVASINGRTTRTYYADSVKGRFTISRDNAKNTVYLQMNSLKPEDTAVYYCAADPPGYVYGKRYYWGQGTQVTVSS | high polyreactivity
38 | QVQLVESGGGLVQAGGSLRLSCAASGRTLASNAMGWYRQAPGKERELVAAINRGGSTYYADSVKGRFTISRDNAKNTVYLQMNSLKPEDTAVYYCRFYSYWSWLGREYDYWGQGTQVTVSS | low polyreactivity
39 | QVQLVESGGGLVQAGGSLRLSCAASGRTLDWNAMGWYRPAPGKERELVAAISWSGDSTYYADSVKGRFTISRDNAKNTVYLQMNSLKPEDTAVYYCAAAGVYYGVRGTTYAFDYWGQGTQVTVSS | low polyreactivity
40 | QVQLVESGGGLVQAGGSLRLSCAASGRTLEDYVMGWYRQAPGKERELVAAIYWSGVSTYYADSVKGRFTISRDNAKNTVYLQMNSMKPEDTAVYYCAKDSTADELTGFDYWGQGTQVTVSS | low polyreactivity
41 | QVQLVESGGGLVQAGGSLRLSCAASGRTLEIYTMGLNRQAPGKERELVAAISGGSTYYADSVKGRFTISRDNSKNTVYLQMNSLKPEDTAVYYCAARPYVFRYHRWTVDWRYDYWGQGTQVTVSS | low polyreactivity
